Measured values: US20250034264A1, “REGULATING T CELL IMMUNE RESPONSE THROUGH IGF-I RECEPTOR (IGF-1R)” (The Regents of the University of Michigan, priority 2021, published 2025)

Tests used:
Type in all cases: cell-based, human
CD34+ fibrocytes = experiment: MHC II, CD80, CD86, PD-L1 expression in cultured fibrocytes (RT-qPCR, flow cytometry); conditions: rhSlit2 50 ng/ml, 5 to 7 d
Text: Fibrocyte and T cell isolation and cultivation. Peripheral blood mononuclear cells (PBMCs) were obtained from the venous circulation of clinic patients with GD, TAO or from healthy donors after obtaining informed consent. PBMCs were also obtained from Red Cross donor plasmapheresis filters. They were isolated by Ficoll-Histopaque (Sigma-Aldrich, St. Louis, MO) density gradient centrifugation. Fibrocytes were cultivated as described (Bucala, R, et al., (1994) Mol Med 1, 71-81, incorporated herein by reference in its entirety) except that culture substrata remained uncoated with fibronectin, as previously described (Douglas, R. S., et al. (2010) The Journal of clinical endocrinology and metabolism 95, 430-438). Isolated PBMCs (1×10^6-1×107) were inoculated in six-well plates covered with DMEM containing 10% FBS and incubated in 10-14 days. Adherent monolayers (<5% of the starting population) were washed with PBS and detached using accutase (Millipore) treatment, or mechanical scraping following accutase treatment. Culture purity was routinely confirmed by FACS analysis to be >90% fibrocytes by confirming the CD31^−CD45^+CD34^+CXCR4^+Col I^+TSFR^high phenotype.
Invariably, a small population of tightly adherent T cells were found in the fibrocyte cultures, consistent with the previous findings. Culture viability was routinely verified to be >90%. CD4^+ T cells were enriched using the CD4 isolation cocktail (Cat #0.130-096-533, Miltenyi Biotec, San Diego, CA) followed by negative selection using a magnetic column (Cat #0.130-042-401) according to manufacturer's protocol. Fibrocytes and isolated T cells were cultured and remained untreated or were incubated with human IgG isotype control (5 μg/ml) or teprotumumab (50 μg/mL) for 7 to 9 days. Single cell suspensions were stained with anti-human CD4, CD3, CD34, MHC-2, CD80, CD86, and PD-L1 (BD Biosciences) for 30 min, rinsed and fixed with CytoPerm/CytoFix (BD). They were then stained with anti-human INFγ and IL-17A for 20 min, rinsed, and subjected to the flow cytometry analysis. Gated CD34^+CXCR4^+ fibrocytes and CD4^+CD3^+ T cells were analyzed using quadrant settings based on negative isotype staining.
In vitro studies of CD34^+ fibrocytes and T cells PBMC and GD-OF monolayers were treated in vitro with human IgG isotype control (5 μg/ml), teprotumumab (50 μg/mL), H7 (5 μg/mL), linsitinib (1 μM), bTSH (5 mIU/mL), M22 (1 μg/mL), or IGF-1 (10 nM) for the intervals indicted in the figure legends in a 37° C., 5% CO2, humidified incubator until confluent. Brefeldin A (0.66 μl/ml), (Golgi Stop™, BD Biosciences), phorbol 12-myristate 13-acetate (PMA) (50 ng/ml) and ionomycin (1 μg/mL) were added for 5 h. Cells were rinsed with flow cytometry buffer (1×PBS, 0.5% BSA, 0.1% sodium azide) and stained with the relevant monoclonal antibodies.
(§1) Real-time PCR Confluent fibrocyte and GD-OF cultures were incubated with bTSH (5 mIU/mL), teprotumumab (50 μg/mL) or linsitinib (1 μM) for the time intervals indicated, washed with PBS and RNA was extracted with the Aurum Total RNA Mini Kit (cat. #732-6820, Bio-Rad, Hercules, CA). Cellular RNA (2 μg) was reverse transcribed using QuantiTect Reverse Transcription kit (cat. #205314, Qiagen (Germantown, MD) and real-time PCR was performed using an Applied Biosystems instrument with QuantiTect SYBR Green PCR kit (cat. no. 204143; Qiagen, Frederick, MD). Primer sequences were as follows.

fibrocytes and GD-OF = experiment: BAFF expression and induction by bTSH; conditions: teprotumumab 50 μg/ml or rhSlit2 50 ng/ml
Experimental: FIGS. 12A-12F are graphs showing the effect of bTSH, teprotumumab, and Slit2 on B-cell activating factor (BAFF) expression in fibrocytes and GD-OF. In FIGS. 12A and 12B, cultures were treated for the graded intervals indicated along the abscissas with bTSH (5 mIU/mL). Cellular RNA was harvested and subjected to reverse transcription by RT-PCR (FIG. 12A). Values were normalized to their respective GAPDH levels Medium was assayed for BAFF levels with an ELISA (FIG. 12B). Values were normalized to respective monolayer protein content. Data are expressed as mean f SD of triplicate determinations; *, p<0.05; **, p<0.01; ***, p<0.001. In FIGS. 12C-12F, bTSH, teprotumumab (50 μg/ml) or recombinant human Slit2 (rhSlit2) (50 ng/ml) were added to culture media for the times indicated and analyzed for BAFF mRNA levels as in FIG. 12A. In FIGS. 12F, parental GD-OF strains were sorted into pure CD34^+ and CD34^− subsets. Subsets were then cultured for 48 h, the final 6 h in the absence or presence of bTSH. Data were expressed as mean f SD of triplicate independent determinations from a single experiment representative of three conducted. *, p<0.05; **, p<0.01
IL-12, IL-23, IL-10, HA and BAFF ELISAs. Confluent cultures were treated with nothing or teprotumumab (50 μg/mL) for 5 d, without or with bTSH (5 mU/mL) for the intervals indicated or 72 h. […]

fibrocytes = experiment: IL-10, icIL-1RA, sIL-1RA expression (PCR, ELISA)
Experimental: FIGS. 11A-11F are graphs showing teprotumumab attenuates bTSH induced IL-10 while enhancing icIL-1RA and sIL-1RA expression in fibrocytes and GD-OF. Fibrocyte cultures were treated with teprotumumab (50 μg/ml), rhSlit2 (50 ng/ml) or human Isotype IgG for 7-9 d, with bTSH (5 mIU/mL) for final 6 h. RNA was extracted and reverse transcribed. Isolated cDNA was subjected to quantitative real-time PCR for IL-10 (FIGS. 11A and 11B), icIL-1RA (FIGS. 11C and 11D). Media and cellular proteins were collected and subjected to specific ELISAs for icIL-1RA and sIL-1RA (FIGS. 11E, 11F, 11G, and 11H). PCR values were normalized to their respective GAPDH levels. icIL-1RA and sIL-1RA protein levels were normalized to cellular protein levels. Data are expressed as the mean±SD of three independent determinations. Experiments were repeated three times. **, p<0.01; ***. P<0.001.
IL-12, IL-23, IL-10, HA and BAFF ELISAs. Confluent cultures were treated with nothing or teprotumumab (50 μg/mL) for 5 d, without or with bTSH (5 mU/mL) for the intervals indicated or 72 h. Media and rinsed cell layers were homogenized in 0.1M NaCl and assayed for HA content using an ELISA kit (K-1200) from Echelon Biosciences Inc. (Salt Lake City, UT) according to manufacturer's instructions. A BAFF specific ELISA, purchased from R & D systems, was used in accordance with the manufacturer's instructions.
as §1

[1] = teprotumumab 50 μg/ml or rhSlit2 50 ng/ml, 7-9 d

B1: rhSlit2: recombinant human Slit2, a neural axon repellent generated by CD34− OF (protein, UniProt O94813 31-1529, looked up)
Slit homolog 2 protein: QCSCSGSTVDCHGLALRSVPRNIPRNTERLDLNGNNITRITKTDFAGLRHLRVLQLMENKISTIERGAFQDLKELERLRLNRNHLQLFPELLFLGTAKLYRLDLSENQIQAIPRKAFRGAVDIKNLQLDYNQISCIEDGAFRALRDLEVLTLNNNNITRLSVASFNHMPKLRTFRLHSNNLYCDCHLAWLSDWLRQRPRVGLYTQCMGPSHLRGHNVAEVQKREFVCSGHQSFMAPSCSVLHCPAACTCSNNIVDCRGKGLTEIPTNLPETITEIRLEQNTIKVIPPGAFSPYKKLRRIDLSNNQISELAPDAFQGLRSLNSLVLYGNKITELPKSLFEGLFSLQLLLLNANKINCLRVDAFQDLHNLNLLSLYDNKLQTIAKGTFSPLRAIQTMHLAQNPFICDCHLKWLADYLHTNPIETSGARCTSPRRLANKRIGQIKSKKFRCSAKEQYFIPGTEDYRSKLSGDCFADLACPEKCRCEGTTVDCSNQKLNKIPEHIPQYTAELRLNNNEFTVLEATGIFKKLPQLRKINFSNNKITDIEEGAFEGASGVNEILLTSNRLENVQHKMFKGLESLKTLMLRSNRITCVGNDSFIGLSSVRLLSLYDNQITTVAPGAFDTLHSLSTLNLLANPFNCNCYLAWLGEWLRKKRIVTGNPRCQKPYFLKEIPIQDVAIQDFTCDDGNDDNSCSPLSRCPTECTCLDTVVRCSNKGLKVLPKGIPRDVTELYLDGNQFTLVPKELSNYKHLTLIDLSNNRISTLSNQSFSNMTQLLTLILSYNRLRCIPPRTFDGLKSLRLLSLHGNDISVVPEGAFNDLSALSHLAIGANPLYCDCNMQWLSDWVKSEYKEPGIARCAGPGEMADKLLLTTPSKKFTCQGPVDVNILAKCNPCLSNPCKNDGTCNSDPVDFYRCTCPYGFKGQDCDVPIHACISNPCKHGGTCHLKEGEEDGFWCICADGFEGENCEVNVDDCEDNDCENNSTCVDGINNYTCLCPPEYTGELCEEKLDFCAQDLNPCQHDSKCILTPKGFKCDCTPGYVGEHCDIDFDDCQDNKCKNGAHCTDAVNGYTCICPEGYSGLFCEFSPPMVLPRTSPCDNFDCQNGAQCIVRINEPICQCLPGYQGEKCEKLVSVNFINKESYLQIPSAKVRPQTNITLQIATDEDSGILLYKGDKDHIAVELYRGRVRASYDTGSHPASAIYSVETINDGNFHIVELLALDQSLSLSVDGGNPKIITNLSKQSTLNFDSPLYVGGMPGKSNVASLRQAPGQNGTSFHGCIRNLYINSELQDFQKVPMQTGILPGCEPCHKKVCAHGTCQPSSQAGFTCECQEGWMGPLCDQRTNDPCLGNKCVHGTCLPINAFSYSCKCLEGHGGVLCDEEEDLFNPCQAIKCKHGKCRLSGLGQPYCECSSGYTGDSCDREISCRGERIRDYYQKQQGYAACQTTKKVSRLECRGGCAGGQCCGPLRSKRRKYSFECTDGSSFVDEVEKVVKCGCTRCVS
MHC II and B7 expression (CD34+ fibrocytes): repressing | bTSH induction of BAFF (fibrocytes and GD-OF): similar | sIL-1RA expression (protein) (fibrocytes; ELISA, fibrocytes): attenuated | IL-10 mRNA, basal and bTSH-provoked expression (fibrocytes; [1]): downregulated | basal and bTSH-dependent icIL-1RA and sIL-1RA mRNA levels (fibrocytes; [1]): upregulated
